Data taken from PMC4351549.

Target: CeHSP17 protein (small heat shock protein from Caenorhabditis elegans) (Caenorhabditis elegans)
Experiment: cryo-EM structure; single particle 3D reconstruction, 14,217 particles, images obtained at 4°C, tetrahedral symmetry, 14.5 Å

stoichiometry N: 24 subunits
Substance: CeHSP17 protein (small heat shock protein from Caenorhabditis elegans) (natural protein)
